Experimental data taken from PMC7816212 (Nature, 2020).
No end group written: not given here. *: point of attachment. FITC = O=C1OC2(c3ccc(O)cc3Oc3cc(O)ccc32)c2ccc(NC(=S)*)cc21

B1: N-terminal FITC-labeled BCoR peptide (peptide)
peptide: {FITC}-RSEIISTAPSSWVVPGP
B2: biotinylated Strep II Avi-tagged SIAH1^SBD (domain or fragment)
chain: VANSVLFPCKYASSGCEITLPHTEKADHEELCEFRPYSCPCPGASCKWQGSLDAVMPHLMHQHKSITTLQGEDIVFLATDINLPGAVDWVMMQSCFGFHFMLVLEKQEKYDGHQQFFAIVQLIGTRKQAENFAYRLELNGHRRRLTWEATPRSIHEGIATAIMNSDCLVFDTSIAQLFAENGNLGINVTISMC
modifications: biotin

What was measured:
biotinylated BCL6^5−129 = biotinylated BCL6^5−129 (human, UniProt A5PL18 5-129, biotin); assay: FRET or BRET
[1] = target: BodipyFL-labeled BCL6^5−360 (human, UniProt A5PL18 5-360, BodipyFL label (site not stated)); assay: FRET or BRET

Binder | binding result (biotinylated BCL6^5−129) | Kd [1] [nM]
B1 | binds | –
B2 | – | 200
